In PMC11094003, “Chemical manipulation of an activation/inhibition switch in the nuclear receptor PXR” (Nature Communications, 2024):
Numbering of substitutions follows the chain as printed.

Assays:
[1] = target: T1, L428V mutant of human pregnane X receptor ligand binding domain (residues 130-434) (human, UniProt O75469 130-434, L428V); test: crystal structure; PXR L428V LBD tethered to the SRC-1 peptide on one chain, apo and with the antagonist SJPYT-331; 50 mM Bis-Tris pH 6-7, 10-20% MPD, 20 °C; conditions: both partners purified
T1 construct: As m1, one polypeptide with the SRC-1 peptide: His6 - PXR 130-434 (L428V) - SGGSGG linker - SRC-1 678-710; also called PXR^L428V LBD; source: E. coli BL21(DE3), purified (HisTrap, HiTrap SP flow-through, Superdex 200 SEC)
T1 sequence (looked up): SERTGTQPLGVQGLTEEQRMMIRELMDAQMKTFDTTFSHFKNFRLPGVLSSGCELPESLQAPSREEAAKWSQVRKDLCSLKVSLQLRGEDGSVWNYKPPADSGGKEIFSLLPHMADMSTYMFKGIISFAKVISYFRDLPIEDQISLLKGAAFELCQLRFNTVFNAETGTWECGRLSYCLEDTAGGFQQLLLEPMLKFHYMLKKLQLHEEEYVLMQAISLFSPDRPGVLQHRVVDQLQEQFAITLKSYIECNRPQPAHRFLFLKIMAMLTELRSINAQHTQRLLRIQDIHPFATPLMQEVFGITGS

[2] = target: T2, human pregnane X receptor ligand binding domain (residues 130-434) (human, UniProt O75469 130-434); test: crystal structure; PXR LBD tethered to the SRC-1 peptide on one chain, co-crystallised with an antagonist (SJPYT-310, SJPYT-278, SJPYT-312 or SJPYT-331; 2:1 ligand to protein); 50 mM Bis-Tris pH 6-7, 10-20% MPD, 20 °C; conditions: both partners purified
T2 construct: In the crystallised construct this domain and the SRC-1 peptide are one polypeptide: His6 - PXR 130-434 - SGGSGG linker - SRC-1 678-710; Written here as a molecule of its own for the pair PXR LBD / SRC-1; also called PXR LBD; WT PXR LBD; source: E. coli BL21(DE3), purified (HisTrap, HiTrap SP flow-through, Superdex 200 SEC)
T2 sequence (looked up): T1 sequence (looked up) with V299L

binding result [1]: binds | binding result [2]: binds
B1: SRC-1 peptide (residues 678-710), 33 amino acids (peptide, UniProt Q15788 678-710, looked up)
chain: SSHSSLTERHKILHRLLQEGSPSDITTLSVEPD
notes: Not a free peptide: tethered to the C-terminus of PXR LBD (m1 or m3) through an SGGSGG linker on one chain; also called tethered SRC-1 peptide
